According to patent publication US5587462, “Brain-derived membrane-associated CRF binding proteins” (The Salk Institute For Biological Studies, dated 1996):
Each block holds one molecule with its values, some of them ahead of it.

Assays:
[1] = molecular target: 35 kD ovine brain-derived membrane-associated CRF-BP (sheep (ovine)); experiment: competition of radiolabeled CRF binding by cold CRF
[2] = molecular target: 33 kD ovine brain-derived membrane-associated CRF-BP (sheep (ovine)); experiment: as above
[3] = molecular target: T1, human Corticotropin-Releasing Factor (hCRF) (human (same molecule in rat), UniProt P06850, 125I-radiolabeled in the binding, cross-linking and LIRMA assays; immobilized on a solid-phase matrix in the affinity chromatography); experiment: binding assay with purified membrane-associated CRF-BP
T1 peptide: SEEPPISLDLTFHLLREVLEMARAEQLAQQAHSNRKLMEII

concentration of cold CRF that competes [1]: 1 µM
concentration of cold CRF that competes [2]: 1 µM
Molecule: Corticotropin-Releasing Factor (CRF), species not stated at the experiment (peptide)

Kd [3]: 7.5 nM
B1: 35 kD ovine brain-derived membrane-associated CRF-BP (other)
chain: EAVDHDSFPHLAGGASPKRELEGEPLYRRALRCVDMLSLQGQFTFTADRRQLHCATFFIAEPEEFITIHYDLVSIDCLRGDILQVFDGWILKGEKFPSSQDHPLPTTERYVDFCDSGLSRRSIRSSQNVAMIFFRVHEPGNGFTITVKTEPNLFPCNIISQTPNGRFTLVMPHQHRNCSFSIIYPVAIKISDLTLGHLNGLQLKKSSAGCGGIGDFVELLGGTGLDPSKMLLLADLCYPLRGPAQMKVGCDHTVLRMVSSGKLLNRVTFEYRKLEPYELENPNGNSIQEFCLSTL

Kd [3]: 0.25 nM
B2: 33 kD ovine brain-derived membrane-associated CRF-BP (other)
chain: ELEGEPLYRRALRCVDMLSLQGQFTFTADRRQLHCATFFIAEPEEFITIHYDLVSIDCLRGDILQVFDGWILKGEKFPSSQDHPLPTTERYVDFCDSGLSRRSIRSSQNVAMIFFRVHEPGNGFTITVKTEPNLFPCNIISQTPNGRFTLVMPHQHRNCSFSIIYPVAIKISDLTLGHLNGLQLKKSSAGCGGIGDFVELLGGTGLDPSKMLLLADLCYPLRGPAQMKVGCDHTVLRMVSSGKLLNRVTFEYRKLEPYELENPNGNSIQEFCLSTL
